In assay [1] the target is fraction 1 capsular antigen (F1) of Yersinia pestis (Yersinia pestis EV strain, UniProt P26948). The assay is described as follows: ELISA. The following applies: both partners purified.
The target in assay [2] is T1, SARS-CoV-2 nucleocapsid protein (N) (SARS-CoV-2, strain , UniProt P0DTC9).
T1 construct: also called SARS-CoV-2 NPs
The assay is described as follows: ELISA.

Assay [3] addresses fraction 1 capsular antigen (F1) of Yersinia pestis (Yersinia pestis EV strain, UniProt P26948). The assay is described as follows: BLI. The following applies: both partners purified.

B1: human anti-F1 monoclonal antibody αF1Ig8 (antibody, V domains shown)
VH: QVQLQQWGAGLLKPSETLSLTCAVYGGSFSGYYWSWIRQPPGKGLEWIGEINHSGNTNYNPSLKSRVTISVDTSKNQFSLQLNSVTPEDTAVYYCARTRGYFDLWGRGTLVTVSS
VL: DIRMTQSPSSLSASVGDRVTITCRASQSISSYLNWYQQKPGKAPKLLIYATSSLQSGVPSRFSGSGSGTDFTLTISSLQFEDFATYYCQQSYSTPSSFGQGTKVDIK
notes: source: EXPi293F, synthesized expression plasmids
In the case of B1, in assay [1], the binding result is on record as “binds”.

B2: human monoclonal antibody F23 (antibody, V domains shown)
VH: EVQLLESGGGVVQPGRSLRLSCAASGFTFSSYAMHWVRQAPGKGLEWVAAILYDGSNKNYADSVKGRFTISRDNSKNTLYLQMNSLRAEDTAVYYCARGTPAMVRGVIGPLFEHWGQGTLVTVSS
VL: DIQMTQSPDSLAVALGERATINCKSSQSVLYTSNNKNYLAWYQKKPGQPPKLLIYWASTRESGVPDRFSGSGSGTDFTLTISSLQPEDVAVYYCQQYFILPRTFGQGTKLEIK
notes: also called HRP-conjugated F23; source: Expi293F, cotransfected heavy and light chain plasmids, purified (Protein A); copies: 2 + 2
Turning to B2, the binding result in assay [2] is listed as “no binding”.

B3: human monoclonal antibody F19 (antibody, V domains shown)
VH: EVQLLESGGGVVQPGGSLRLSCAASGFTFDDYAMHWVRQVPGKGLEWVSLISGDGGSTSYADSVKGRFTISRDNSKNSLYLQMSSLRTEDTALYYCAKDRGRAWIDYWGQGTLVTVSS
VL: not shown
notes: also called HRP-conjugated F19; source: Expi293F, cotransfected heavy and light chain plasmids, purified (Protein A); copies: 2 + 2
On to B3, for which the binding result in assay [2] is on record as “no binding”. Also, the dissociation constant Kd in assay [3] came out at 0.165 nM.

B4: human monoclonal antibody F3 (antibody, V domains shown)
VH: EVQLLESGGGVVQPGRSLRLSCAASGFTFSRYGMHWVRQAPGKGLEWVAVISHDGNIKYYGDSVKGRFTISRDNSKNTLYLQMNSLRVEDTAVYYCAKDRGKFDSWGQGTLVTVSS
VL: not shown
notes: also called F3-HRP; source: Expi293F, cotransfected heavy and light chain plasmids, purified (Protein A); copies: 2 + 2
On to B4, for which the binding result in assay [2] is recorded as “no binding”.

The Kd is the concentration at which binding is half-saturated. High values mean lower affinity, low ones higher affinity.
